Measured values taken from the Immune Epitope Database (IEDB).

target: HLA-A*02:01; assay: IEDB peptide-MHC binding, cellular MHC/competitive/fluorescence; ≥ and ≤ were set here for values at or beyond the usual limits of such assays; details: source organism: Influenza A virus

Sequence	IC50
TLNRNQPAA	15.2 µM
TLNTMTKDA	10.2 µM

same assay, conditions: source organism: Mammarenavirus brazilense

Sequence	IC50
KNATWCLEV	12.8 µM
MSPALFFTFL	6.38 µM

same assay, conditions: source organism: Mammarenavirus guanaritoense

Sequence	IC50
TNAEFTFQL	5.02 µM
WSAIFFTTSL	9.09 µM

same assay, conditions: source organism: Mammarenavirus lassaense

Sequence	IC50
CNYSKYWYL	16.3 µM

same assay, conditions: source organism: Vaccinia virus WR

Sequence	IC50
CTMERTNDLT	18.6 µM
CTNDIYCDEI	9.06 µM
DIPTFNSLNT	23 µM
DISSFYWSL	8.51 µM
EQGDIALAL	13 µM
HTYHLENDKI	59 µM
IASGQRCHFI	18.4 µM
LTHFNNNENV	6.59 µM
LTSVDIETA	24 µM
MVEYLENQL	12 µM
SVDIETAIRA	5.14 µM
SVDVDIYDA	13.3 µM
TTPLISFFGL	27.3 µM
VIRNEVNDT	≥ 70 µM
VTKRDESSI	≥ 70 µM
WIKNLETYT	49.5 µM
YALEPRKEI	9.81 µM
YAVLSEYET	37.2 µM
YAVLSEYETM	5.51 µM

target: HLA-A*02:03; assay: as above; details: source organism: Mammarenavirus brazilense

Sequence	IC50
KNATWCLEV	7.02 µM
MSPALFFTFL	7.64 µM
SNPNLFWAV	6.16 µM

same assay, conditions: source organism: Mammarenavirus choriomeningitidis

Sequence	IC50
MSCDDVVFGI	12.1 µM
YCNYSKFWYL	9.64 µM

same assay, conditions: source organism: Mammarenavirus guanaritoense

Sequence	IC50
TNAEFTFQL	15.1 µM
WSAIFFTTSL	6.99 µM

same assay, conditions: source organism: Mammarenavirus lassaense

Sequence	IC50
CNYSKYWYL	7.13 µM

same assay, conditions: source organism: Mammarenavirus whitewaterense

Sequence	IC50
FSAVISGSV	14.1 µM
GLLQFIVFL	7.72 µM
VCFWSTLFYV	7.02 µM

same assay, conditions: source organism: SARS-CoV1

Sequence	IC50
FLVLIMLII	9.73 µM

same assay, conditions: source organism: Vaccinia virus WR

Sequence	IC50
ALYYVHSLL	15 µM
CAVIPFDDIV	7.42 µM
CTMERTNDLT	16.1 µM
CTNDIYCDEI	5.72 µM
CVDHPFIYVI	10.8 µM
DIKYISRDEL	9.58 µM
DIPTFNSLNT	16.6 µM
DISSFYWSL	6.87 µM
EQGDIALAL	11.1 µM
ETDDDGNYPL	28.2 µM
HLTENNLYI	14.4 µM
HTYHLENDKI	13.7 µM
IAGGVCYYLL	14.6 µM
IASGQRCHFI	8.32 µM
IASILSLET	7.48 µM
ITDDSDDYEL	11.9 µM
ITVGMLIYSM	6.11 µM
IVNTTYDFLA	8.27 µM

Sequence	IC50
IVSRSSRGV	13.2 µM
KIDKLTFQI	10.6 µM
KQIMECSRML	29.6 µM
LTHFNNNENV	7.27 µM
LTSVDIETA	11.5 µM
MVEYLENQL	6.46 µM
NAVTTNNLL	24.9 µM
SICLDYIIV	8.65 µM
STVDVRNIVT	11.6 µM
SVDIETAIRA	7.62 µM
SVDVDIYDA	11.9 µM
TIILNKIVQL	49.3 µM
TTPLISFFGL	17.6 µM
TTTFITVLT	8.59 µM
YALEPRKEI	7.07 µM
YAVLSEYET	35.1 µM
YAVLSEYETM	9.63 µM
YVVIVENDNV	11 µM

target: HLA-A*68:02; assay: as above; details: source organism: Influenza A virus

Sequence	IC50
TLNRNQPAA	≥ 70 µM
TLNTMTKDA	≥ 70 µM

same assay, conditions: source organism: Mammarenavirus whitewaterense

Sequence	IC50
GLLQFIVFL	12 µM

same assay, conditions: source organism: Vaccinia virus WR

Sequence	IC50
HLTENNLYI	5.81 µM
IASILSLET	7.76 µM
ITDDSDDYEL	11.9 µM
KIDKLTFQI	36.9 µM
KQIMECSRML	7.47 µM
VIRNEVNDT	28.3 µM
VTKRDESSI	8.1 µM
WIKNLETYT	≥ 70 µM

target: HLA-A*02:02; assay: as above; details: source organism: Influenza A virus

Sequence	IC50
TLNRNQPAA	11.4 µM
TLNTMTKDA	14.7 µM

same assay, conditions: source organism: Vaccinia virus WR

Sequence	IC50
VIRNEVNDT	19.9 µM
VTKRDESSI	8.05 µM
WIKNLETYT	18.3 µM

target: HLA-A*02:06; assay: as above; details: source organism: Influenza A virus

Sequence	IC50
TLNRNQPAA	≥ 70 µM
TLNTMTKDA	≥ 70 µM

same assay, conditions: source organism: Vaccinia virus WR

Sequence	IC50
VIRNEVNDT	≥ 70 µM
VTKRDESSI	38.1 µM
WIKNLETYT	8.2 µM

target: HLA-A*02:01; assay: IEDB peptide-MHC binding, purified MHC/competitive/radioactivity; ≥ and ≤ were set here for values at or beyond the usual limits of such assays; details: source organism: Mammarenavirus brazilense

Sequence	IC50
SNPNLFWAV	1460 nM

same assay, conditions: source organism: Mammarenavirus choriomeningitidis

Sequence	IC50
MSCDDVVFGI	1010 nM
YCNYSKFWYL	1710 nM

same assay, conditions: source organism: Mammarenavirus whitewaterense

Sequence	IC50
FSAVISGSV	83 nM
GLLQFIVFL	0.0075 nM
VCFWSTLFYV	904 nM

same assay, conditions: source organism: SARS-CoV1

Sequence	IC50
FLVLIMLII	2300 nM

same assay, conditions: source organism: Vaccinia virus WR

Sequence	IC50
ALYYVHSLL	229 nM
CAVIPFDDIV	1090 nM
CVDHPFIYVI	2890 nM
DIKYISRDEL	3570 nM
ETDDDGNYPL	2170 nM
HLTENNLYI	15 nM
IAGGVCYYLL	174 nM
IASILSLET	2540 nM
ITDDSDDYEL	1730 nM
ITVGMLIYSM	167 nM
IVNTTYDFLA	2390 nM
IVSRSSRGV	1980 nM
KIDKLTFQI	134 nM
KQIMECSRML	357 nM
SICLDYIIV	579 nM
STVDVRNIVT	3050 nM
TIILNKIVQL	86 nM
TTTFITVLT	2320 nM
YVVIVENDNV	547 nM

target: HLA-A*02:03; assay: as above; details: source organism: Influenza A virus

Sequence	IC50
TLNRNQPAA	0.583 µM
TLNTMTKDA	0.581 µM

same assay, conditions: source organism: Vaccinia virus WR

Sequence	IC50
VIRNEVNDT	0.82 µM
VTKRDESSI	2.14 µM
WIKNLETYT	0.637 µM

target: HLA-A*68:02; assay: as above; details: source organism: Mammarenavirus brazilense

Sequence	IC50
KNATWCLEV	1.39 µM
MSPALFFTFL	0.102 µM
SNPNLFWAV	0.079 µM

same assay, conditions: source organism: Mammarenavirus choriomeningitidis

Sequence	IC50
MSCDDVVFGI	0.054 µM
YCNYSKFWYL	0.925 µM

same assay, conditions: source organism: Mammarenavirus guanaritoense

Sequence	IC50
TNAEFTFQL	0.0053 µM
